According to patent publication US20150344570A1 (published 2015):

T1: FcγRIIb extracellular domain with C-terminal His tag (human, UniProt P31994 43-217)
T1 construct: extracellular domain; also called 2b; FcgRIIb
T1 sequence (looked up): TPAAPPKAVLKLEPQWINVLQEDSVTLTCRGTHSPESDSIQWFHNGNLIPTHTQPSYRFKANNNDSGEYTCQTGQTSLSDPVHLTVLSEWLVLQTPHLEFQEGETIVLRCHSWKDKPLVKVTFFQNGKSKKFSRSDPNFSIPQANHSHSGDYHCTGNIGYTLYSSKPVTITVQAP

T2: FcγRIIb extracellular domain with C-terminal His tag (human, UniProt P31994 43-217)
T2 construct: extracellular domain; Soluble receptor used as analyte in Biacore; also called FcgRIIb
T2 sequence (looked up): T1 sequence (looked up)

B1: GpH7-A5/GpH7-B3 variant L234_11K/GpL16-k0 (antibody, human IgG1, kappa)
heavy 1: not shown
heavy 2: not shown
light: DIVMTQSPLSLPVTPGEPASISCQASESLVHSNRNTYLHWYLQKPGQSPQLLIYKVSNRFSGVPDRFSGSGSGTDFTLKISRVEAEDVGVYYCSQNTHVPPTFGQGTKVEIERTVAAPSVFIFPPSDEQLKSGTASVVCLLNNFYPREAKVQWKVDNALQSGNSQESVTEQDSKDSTYSLSSTLTLSKADYEKHKVYACEVTHQGLSSPVTKSFNRGEC
notes: also called He Ab
B2: GpH7-A5/GpH7-B3 variant L234_19Q/GpL16-k0 (antibody, human IgG1, kappa)
heavy 1: not shown
heavy 2: not shown
light: B1 light
notes: also called He Ab
B3: GpH7-A5/GpH7-B3 variant L235_03V/GpL16-k0 (antibody, human IgG1, kappa)
heavy 1: not shown
heavy 2: not shown
light: B1 light
notes: also called He Ab
B4: GpH7-A5/GpH7-B3 variant L235_19Q/GpL16-k0 (antibody, human IgG1, kappa)
heavy 1: not shown
heavy 2: not shown
light: B1 light
notes: also called He Ab
B5: GpH7-A5/GpH7-B3 variant L235_05P/GpL16-k0 (antibody, human IgG1, kappa)
heavy 1: not shown
heavy 2: not shown
light: B1 light
notes: also called He Ab
B6: GpH7-A5/GpH7-B3 variant L235_18N/GpL16-k0 (antibody, human IgG1, kappa)
heavy 1: not shown
heavy 2: not shown
light: B1 light
notes: also called He Ab
B7: GpH7-A5/GpH7-B3 variant L234_16H/GpL16-k0 (antibody, human IgG1, kappa)
heavy 1: not shown
heavy 2: not shown
light: B1 light
notes: also called He Ab
B8: GpH7-A5/GpH7-B3 variant L235_11K/GpL16-k0 (antibody, human IgG1, kappa)
heavy 1: not shown
heavy 2: not shown
light: B1 light
notes: also called He Ab
B9: GpH7-A5/GpH7-B3 variant L235_14T/GpL16-k0 (antibody, human IgG1, kappa)
heavy 1: not shown
heavy 2: not shown
light: B1 light
notes: also called He Ab
B10: GpH7-A5/GpH7-B3 variant L235_13S/GpL16-k0 (antibody, human IgG1, kappa)
heavy 1: not shown
heavy 2: not shown
light: B1 light
notes: also called He Ab
B11: GpH7-A5/GpH7-B3 variant L234_15Y/GpL16-k0 (antibody, human IgG1, kappa)
heavy 1: not shown
heavy 2: not shown
light: B1 light
notes: also called He Ab; GpH7-A5/GpH7-B3-01-15Y/GpL16-k0
B12: GpH7-A5/GpH7-B3 variant L235_01G/GpL16-k0 (antibody, human IgG1, kappa)
heavy 1: not shown
heavy 2: not shown
light: B1 light
notes: also called He Ab
B13: GpH7-A5/GpH7-B3 variant L234_12R/GpL16-k0 (antibody, human IgG1, kappa)
heavy 1: not shown
heavy 2: not shown
light: B1 light
notes: also called He Ab
B14: GpH7-A5/GpH7-B3 variant K326_02A/GpL16-k0 (antibody, human IgG1, kappa)
heavy 1: not shown
heavy 2: not shown
light: B1 light
notes: Heterodimerized IgG1, mutation in the GpH7-B3 chain only; also called He Ab
B15: GpH7-A5/GpH7-B3 variant K326_10E/GpL16-k0 (antibody, human IgG1, kappa)
heavy 1: not shown
heavy 2: not shown
light: B1 light
notes: as for B14
B16: GpH7-A5/GpH7-B3 variant K326_06M/GpL16-k0 (antibody, human IgG1, kappa)
heavy 1: not shown
heavy 2: not shown
light: B1 light
notes: as for B14
B17: GpH7-A5/GpH7-B3 variant K326_14T/GpL16-k0 (antibody, human IgG1, kappa)
heavy 1: not shown
heavy 2: not shown
light: B1 light
notes: as for B14
B18: GpH7-A5/GpH7-B3 variant S267_02A/GpL16-k0 (antibody, human IgG1, kappa)
heavy 1: not shown
heavy 2: not shown
light: B1 light
notes: as for B14
B19: GpH7-A5/GpH7-B3 variant K326_08L/GpL16-k0 (antibody, human IgG1, kappa)
heavy 1: not shown
heavy 2: not shown
light: B1 light
notes: as for B14
B20: GpH7-A5/GpH7-B3 variant K326_20W/GpL16-k0 (antibody, human IgG1, kappa)
heavy 1: not shown
heavy 2: not shown
light: B1 light
notes: as for B14
B21: GpH7-A5/GpH7-B3 variant H268_01G/GpL16-k0 (antibody, human IgG1, kappa)
heavy 1: not shown
heavy 2: not shown
light: B1 light
notes: as for B14
B22: GpH7-A5/GpH7-B3 variant S267_03V/GpL16-k0 (antibody, human IgG1, kappa)
heavy 1: not shown
heavy 2: not shown
light: B1 light
notes: as for B14
B23: GpH7-A5/GpH7-B3 variant H268_02A/GpL16-k0 (antibody, human IgG1, kappa)
heavy 1: not shown
heavy 2: not shown
light: B1 light
notes: as for B14
B24: GpH7-A5/GpH7-B3 variant H268_09D/GpL16-k0 (antibody, human IgG1, kappa)
heavy 1: not shown
heavy 2: not shown
light: B1 light
notes: as for B14
B25: GpH7-A5/GpH7-B3 variant K326_19Q/GpL16-k0 (antibody, human IgG1, kappa)
heavy 1: not shown
heavy 2: not shown
light: B1 light
notes: as for B14
B26: GpH7-A5/GpH7-B3 variant H268_10E/GpL16-k0 (antibody, human IgG1, kappa)
heavy 1: not shown
heavy 2: not shown
light: B1 light
notes: as for B14
B27: GpH7-A5/GpH7-B3 variant H268_13S/GpL16-k0 (antibody, human IgG1, kappa)
heavy 1: not shown
heavy 2: not shown
light: B1 light
notes: as for B14
B28: GpH7-A5/GpH7-B3 variant K326_15Y/GpL16-k0 (antibody, human IgG1, kappa)
heavy 1: not shown
heavy 2: not shown
light: B1 light
notes: as for B14
B29: GpH7-A5/GpH7-B3 variant H268_18N/GpL16-k0 (antibody, human IgG1, kappa)
heavy 1: not shown
heavy 2: not shown
light: B1 light
notes: as for B14
B30: GpH7-A5/GpH7-B3 variant K326_03V/GpL16-k0 (antibody, human IgG1, kappa)
heavy 1: not shown
heavy 2: not shown
light: B1 light
notes: as for B14
B31: GpH7-A5/GpH7-B3 variant K326_04F/GpL16-k0 (antibody, human IgG1, kappa)
heavy 1: not shown
heavy 2: not shown
light: B1 light
notes: as for B14
B32: GpH7-A5/GpH7-B3 variant S267_06M/GpL16-k0 (antibody, human IgG1, kappa)
heavy 1: not shown
heavy 2: not shown
light: B1 light
notes: as for B14
B33: GpH7-A5/GpH7-B3 variant P271_01G/GpL16-k0 (antibody, human IgG1, kappa)
heavy 1: not shown
heavy 2: not shown
light: B1 light
notes: as for B14
B34: GpH7-A5/GpH7-B3 variant K326_07I/GpL16-k0 (antibody, human IgG1, kappa)
heavy 1: not shown
heavy 2: not shown
light: B1 light
notes: as for B14
B35: GpH7-A5/GpH7-B3 variant K326_09D/GpL16-k0 (antibody, human IgG1, kappa)
heavy 1: not shown
heavy 2: not shown
light: B1 light
notes: as for B14

These binders were tested against T3, FcγRIIIa extracellular domain with C-terminal His tag (human, UniProt P08637 17-208) (assay: SPR, binding relative to GpH7-A5/GpH7-B3/GpL16-k0 = 100).
T3 construct: extracellular domain; also called 3a; FcgRIIIa
T3 sequence (P08637 17-208): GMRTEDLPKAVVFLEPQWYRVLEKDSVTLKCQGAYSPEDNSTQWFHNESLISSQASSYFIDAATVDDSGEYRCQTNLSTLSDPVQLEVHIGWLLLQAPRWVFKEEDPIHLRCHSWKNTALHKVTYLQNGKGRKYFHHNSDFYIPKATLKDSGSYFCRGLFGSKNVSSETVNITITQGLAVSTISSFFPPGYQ

He/Con_3a	Binder
30.5 % of control	B1
79.8 % of control	B2
98 % of control	B3
70.5 % of control	B4
71.1 % of control	B5
67.3 % of control	B6
79.5 % of control	B7
38.1 % of control	B8
75.8 % of control	B9
69.6 % of control	B10
130 % of control	B11
58.8 % of control	B12
36.9 % of control	B13

What follows are binders tested against T1, FcγRIIb extracellular domain with … in the same assay as above.

He/Con_2b	Binder
16.2 % of control	B1
60.3 % of control	B2
66.4 % of control	B3
42.6 % of control	B4
54.7 % of control	B5
54.9 % of control	B6
59.4 % of control	B7
6.3 % of control	B8
46.8 % of control	B9
48.2 % of control	B10
96.3 % of control	B11
35.4 % of control	B12
18.9 % of control	B13

Each binder was assayed against T4, FcγRIa extracellular domain with C-terminal His tag (human, UniProt P12314 16-292) (assay: ratio He/Con_1a : He/Con_2b (FcγRIa over FcγRIIb), SPR (Biacore)).
T4 construct: extracellular domain; Soluble receptor used as analyte in Biacore; also called FcgRI
T4 sequence (P12314 16-292): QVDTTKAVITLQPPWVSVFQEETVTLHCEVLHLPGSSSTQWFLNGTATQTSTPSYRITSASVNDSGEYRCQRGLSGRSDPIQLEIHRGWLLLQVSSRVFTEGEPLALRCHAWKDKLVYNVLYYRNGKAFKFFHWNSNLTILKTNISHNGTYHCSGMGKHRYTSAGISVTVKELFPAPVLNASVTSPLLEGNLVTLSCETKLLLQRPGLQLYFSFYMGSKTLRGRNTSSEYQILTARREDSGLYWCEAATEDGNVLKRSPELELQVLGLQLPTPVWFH

He_1a/2b (Ia/IIb)	Binder
0.73	B14
0.52	B15
0.62	B16
0.7	B17
0.45	B18
0.57	B19
0.69	B20
0.75	B21
0.55	B22
0.65	B23
0.46	B24
0.73	B25
0.48	B26
0.68	B27
0.66	B28
0.69	B29
0.58	B30
0.66	B31
0.51	B32
0.54	B33
0.51	B34
0.54	B35

The binders below were run against T3, FcγRIIIa extracellular domain with … (assay: SPR; ratio of He/Con_3a (FcγRIIIa) to He/Con_2b (FcγRIIb)).
Description: The heterodimerized antibodies He Abs in which one of the H chains was introduced with an alteration were assayed for their binding activities to each activating FcγR and inhibitory FcγR according to the method described in Example 4. […] The activating FcγRs in FIGS. 26, 27, 28, and 29 are FcγRIa, FcγRIIa (R), FcγRIIa (H), and FcγRIIIa, respectively.
Analysis of interaction between objective antibody and the FcγR was carried out using Biacore T100 (GE Healthcare). HBS-EP+ (GE Healthcare) was used as the running buffer, and the measurement temperature was set to 25° C. Chips produced by immobilizing the antigen peptide by the amine coupling method to a Series S Sencor Chip CM5 (GE Healthcare), or alternatively, chips produced by allowing preliminarily biotinylated antigen peptides to interact with and immobilize onto a Series S Sensor Chip SA (certified) (GE Healthcare) were used. Antibodies of interest were captured onto an antigen peptide-immobilized chip, and allowed to interact to each FcγR diluted with running buffer. To regenerate and repeatedly use the chip, the antibodies captured on the chip were washed off by reacting 10 mM glycine-HCl, pH 1.5.

He_3a/2b (IIIa/IIb)	Binder
1.88	B1
1.32	B2
1.48	B3
1.65	B4
1.3	B5
1.23	B6
1.34	B7
6.06	B8
1.62	B9
1.44	B10
1.35	B11
1.66	B12
1.95	B13

Each binder was assayed against T2, FcγRIIb extracellular domain with … (assay: SPR (Biacore), antibody captured, FcγR as analyte; binding relative to GpH7-A5/GpH7-B3/GpL16-k0 = 100).

He/Con_2b [control = 100]	Binder
139	B14
200	B15
165	B16
150	B17
243	B18
177	B19
148	B20
144	B21
192	B22
167	B23
239	B24
139	B25
230	B26
160	B27
159	B28
156	B29
175	B30
155	B31
210	B32
193	B33
199	B34
193	B35

These binders were tested against T4, FcγRIa extracellular domain with … in the same assay as above.

He/Con_1a [control = 100]	Binder
102	B14
104	B15
102	B16
104	B17
109	B18
100	B19
103	B20
107	B21
106	B22
109	B23
110	B24
102	B25
111	B26
109	B27
106	B28
108	B29
102	B30
102	B31
106	B32
105	B33
101	B34
103	B35
